Laboratory results taken from patent US20030091567A1 (published 2003).

Columns and labels:
[1] = biological target: Flt4 receptor tyrosine kinase (VEGFR-3) expressed on cells (human) (UniProt P35916); assay: Scatchard analysis with 125I-labelled VEGF-C ΔNΔCHis (cell binding, PAE/VEGFR-3 cells)
[2] = biological target: T1, recombinant Flt4 extracellular domain with C-terminal 6xHis tag (baculovirus), coupled to Sepharose (human, UniProt P35916 25-775); assay: depletion with Flt4EC affinity matrix, read out by VEGFR-2 phosphorylation
T1 construct: extracellular domain; also called Flt4EC; Flt4 EC
T1 sequence: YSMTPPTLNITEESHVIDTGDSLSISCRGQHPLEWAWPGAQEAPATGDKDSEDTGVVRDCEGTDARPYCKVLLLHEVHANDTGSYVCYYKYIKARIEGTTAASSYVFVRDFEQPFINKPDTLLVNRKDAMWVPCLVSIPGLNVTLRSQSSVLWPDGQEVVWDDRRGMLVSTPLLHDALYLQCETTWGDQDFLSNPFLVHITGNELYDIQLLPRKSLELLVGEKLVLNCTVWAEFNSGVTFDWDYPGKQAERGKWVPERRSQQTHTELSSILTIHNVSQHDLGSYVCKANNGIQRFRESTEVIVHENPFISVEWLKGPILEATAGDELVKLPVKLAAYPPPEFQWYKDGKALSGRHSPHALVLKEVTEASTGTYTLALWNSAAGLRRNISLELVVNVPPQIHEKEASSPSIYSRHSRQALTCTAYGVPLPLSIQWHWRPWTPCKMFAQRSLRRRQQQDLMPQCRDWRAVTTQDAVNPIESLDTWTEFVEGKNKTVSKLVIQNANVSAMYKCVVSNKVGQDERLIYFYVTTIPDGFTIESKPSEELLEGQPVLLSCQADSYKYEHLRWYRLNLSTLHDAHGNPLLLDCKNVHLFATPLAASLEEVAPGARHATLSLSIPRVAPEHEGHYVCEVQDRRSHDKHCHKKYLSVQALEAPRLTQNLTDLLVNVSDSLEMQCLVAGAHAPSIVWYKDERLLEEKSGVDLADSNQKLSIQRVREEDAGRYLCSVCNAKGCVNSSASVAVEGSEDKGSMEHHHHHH

[3] = biological target: T2, 32 kD VEGF-C polypeptide (amino acids 32-227 of prepro-VEGF-C) (human, UniProt P49767 32-227); assay: non-reducing and reducing SDS-PAGE of immunoprecipitates
T2 construct: also called 32 kD form; 31 kD
T2 sequence: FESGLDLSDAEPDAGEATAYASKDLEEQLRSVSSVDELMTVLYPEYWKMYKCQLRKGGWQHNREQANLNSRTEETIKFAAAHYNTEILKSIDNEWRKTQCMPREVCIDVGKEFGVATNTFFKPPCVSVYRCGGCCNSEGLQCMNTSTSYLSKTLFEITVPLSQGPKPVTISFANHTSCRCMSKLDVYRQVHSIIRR
Procedure: The immunoprecipitates from each cell culture were subjected to SDS-PAGE under non-denaturing conditions (FIG. 6B). Bands 1-6 were cut out from the gel, soaked for 30 minutes in 1×gel-loading buffer containing 200 mM β-mercaptoethanol, and individually subjected to SDS-PAGE under denaturing conditions (FIGS. 6A and 6C, lanes 1-6).

With “VEGF-C ΔNΔCHis (from UniProt P49767 103-225) (ligand)” the Kd [1] was 0.135 nM.

B1: recombinant human VEGF165 (ligand)
chain: APMAEGGGQNHHEVVKFMDVYQRSYCHPIETLVDIFQEYPDEIEYIFKPSCVPLMRCGGCCNDEGLECVPTEESNITMQIMRIKPHQGQHIGEMSFLQHNKCECRPKKDRARQENPCGPCSERRKHLFVQDPQTCKCSCKNTDSRCKARQLELNERTCRCDKPRR
notes: Bought protein; also called recombinant human VEGF (R&D Systems)
B1: no binding (tested: 50 ng/ml) [2].

B2: 29 kD VEGF-C polypeptide (beginning with amino acid 228 of prepro-VEGF-C) (other)
chain: SLPATLPQCQAANKTCPTNYMWNNHICRCLAQEDFMFSSDAGDDSTDGFHDICGPNKELDEETCQCVCRAGLRPASCGPHKELDRNSCQCVCKNKLFPSQCGANREFDENTCQCVCKRTCPRNQPLNPGKCACECTESPQKCLLKGKKFHHQTCSCYRRPCTNRQKACEPGFSYSEEVCRCVPSYWKRPQMS
notes: C-terminal propeptide; also called 29 kD component; 29 kD form
B2: binds [3].
